Experimental data reported in the supplement of paper PMC5998384.

Experiments:
[1] = tested on: HeLa Kyoto; experiment: melting temperature (median over replicates), in situ; higher = more thermally stable
[2] = tested on: HeLa Kyoto; experiment: solubility change mitosis vs G1/S (difference of NP-40 vs SDS log2 ratios) (log2 ratio difference); higher = more soluble in mitosis
[3] = tested on: HeLa Kyoto; experiment: thermal stability score vs G1/S (z-score of summed log2 fold changes over temperatures); higher = more thermally stable than in G1/S
[4] = tested on: HeLa Kyoto; experiment: solubility in G1/S (NP-40 vs SDS abundance) (log2 ratio); higher = more soluble; details: cell cycle stage: G1/S
[5] = cell cycle stage: early G1 (4.5 h after nocodazole release)
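For melting temperature (median over replicates), in situ in this document: HeLa Kyoto cells synchronized by double thymidine or nocodazole block, proteins quantified by TMT10plex mass spectrometry, three independent biological replicates.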
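For solubility change mitosis vs G1/S (difference of NP-40 vs SDS log2 ratios) in this document: synchronized HeLa Kyoto cells (double thymidine block for G1/S, nocodazole release for mitosis), protein amounts in NP-40 versus SDS lysates quantified by mass spectrometry, three biological replicates.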
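For solubility in G1/S (NP-40 vs SDS abundance) in this document: HeLa Kyoto cells arrested at G1/S by double thymidine block, proteins quantified by TMT10plex mass spectrometry in mild NP-40 versus SDS extracts, three biological replicates.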
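For thermal stability score vs G1/S (z-score of summed log2 fold changes over temperatures) in this document: synchronized HeLa Kyoto cells, proteins quantified by TMT10plex mass spectrometry, three biological replicates, mitosis taken 0.5 h after nocodazole release, G1/S directly after double thymidine block.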

| Sequence | melting temperature ([1]; cell cycle stage: G1/S) | melting temperature ([1]; cell cycle stage: mitosis) | solubility change mitosis (log2) [2] | thermal stability score [3, 5] | thermal stability score ([3]; cell cycle stage: mitosis) | solubility in G1/S (log2) [4] |
| --- | --- | --- | --- | --- | --- | --- |
| MAREKEMQEFTRSFFRGRPDLSTLTHSIVRRRYLAHSGRSHLEPEEKQALKRLVEEELLKMQVDEAASREDKLDLTKKGKRPPTPCSDPERKRFRFNSESESGSEASSPDYFGPPAKNGVAAEVSPAKEENPRRASKAVEESSDEERQRDLPAQRGEESSEEEEKGYKGKTRKKPVVKKQAPGKASVSRKQAREESEESEAEPVQRTAKKVEGNKGTKSLKESEQESEEEILAQKKEQREEEVEEEEKEEDEEKGDWKPRTRSNGRRKSAREERSCKQKSQAKRLLGDSDSEEEQKEAASSGDDSGRDREPPVQRKSEDRTQLKGGKRLSGSSEDEEDSGKGEPTAKGSRKMARLGSTSGEESDLEREVSDSEAGGGPQGERKNRSSKKSSRKGRTRSSSSSSDGSPEAKGGKAGSGRRGEDHPAVMRLKRYIRACGAHRNYKKLLGSCCSHKERLSILRAELEALGMKGTPSLGKCRALKEQREEAAEVASLDVANIISGSGRPRRRTAWNPLGEAAPPGELYRRTLDSDEERPRPAPPDWSHMRGIISSDGESN [HIRIP3] | 53 °C | 52.5 °C | 0.398 | 0.379 | 0.978 | 0.0105 |
| MARELRALLLWGRRLRPLLRAPALAAVPGGKPILCPRRTTAQLGPRRNPAWSLQAGRLFSTQTAEDKEEPLHSIISSTESVQGSTSKHEFQAETKKLLDIVARSLYSEKEVFIRELISNASDALEKLRHKLVSDGQALPEMEIHLQTNAEKGTITIQDTGIGMTQEELVSNLGTIARSGSKAFLDALQNQAEASSKIIGQFGVGFYSAFMVADRVEVYSRSAAPGSLGYQWLSDGSGVFEIAEASGVRTGTKIIIHLKSDCKEFSSEARVRDVVTKYSNFVSFPLYLNGRRMNTLQAIWMMDPKDVREWQHEEFYRYVAQAHDKPRYTLHYKTDAPLNIRSIFYVPDMKPSMFDVSRELGSSVALYSRKVLIQTKATDILPKWLRFIRGVVDSEDIPLNLSRELLQESALIRKLRDVLQQRLIKFFIDQSKKDAEKYAKFFEDYGLFMREGIVTATEQEVKEDIAKLLRYESSALPSGQLTSLSEYASRMRAGTRNIYYLCAPNRHLAEHSPYYEAMKKKDTEVLFCFEQFDELTLLHLREFDKKKLISVETDIVVDHYKEEKFEDRSPAAECLSEKETEELMAWMRNVLGSRVTNVKVTLRLDTHPAMVTVLEMGAARHFLRMQQLAKTQEERAQLLQPTLEINPRHALIKKLNQLRASEPGLAQLLVDQIYENAMIAAGLVDDPRAMVGRLNELLVKALERH [TRAP1] | 52.8 °C | 52.7 °C | -0.149 | 1.66 | -0.668 | -0.0668 |
| MARGSAVAWAALGPLLWGCALGLQGGMLYPQESPSRECKELDGLWSFRADFSDNRRRGFEEQWYRRPLWESGPTVDMPVPSSFNDISQDWRLRHFVGWVWYEREVILPERWTQDLRTRVVLRIGSAHSYAIVWVNGVDTLEHEGGYLPFEADISNLVQVGPLPSRLRITIAINNTLTPTTLPPGTIQYLTDTSKYPKGYFVQNTYFDFFNYAGLQRSVLLYTTPTTYIDDITVTTSVEQDSGLVNYQISVKGSNLFKLEVRLLDAENKVVANGTGTQGQLKVPGVSLWWPYLMHERPAYLYSLEVQLTAQTSLGPVSDFYTLPVGIRTVAVTKSQFLINGKPFYFHGVNKHEDADIRGKGFDWPLLVKDFNLLRWLGANAFRTSHYPYAEEVMQMCDRYGIVVIDECPGVGLALPQFFNNVSLHHHMQVMEEVVRRDKNHPAVVMWSVANEPASHLESAGYYLKMVIAHTKSLDPSRPVTFVSNSNYAADKGAPYVDVICLNSYYSWYHDYGHLELIQLQLATQFENWYKKYQKPIIQSEYGAETIAGFHQDPPLMFTEEYQKSLLEQYHLGLDQKRRKYVVGELIWNFADFMTEQSPTRVLGNKKGIFTRQRQPKSAAFLLRERYWKIANETRYPHSVAKSQCLENSLFT [GUSB] | 56.4 °C | 58 °C | -0.164 | -0.942 | -0.838 | 0.259 |
| MARSPGRAYALLLLLICFNVGSGLHLQVLSTRNENKLLPKHPHLVRQKRAWITAPVALREGEDLSKKNPIAKIHSDLAEERGLKITYKYTGKGITEPPFGIFVFNKDTGELNVTSILDREETPFFLLTGYALDARGNNVEKPLELRIKVLDINDNEPVFTQDVFVGSVEELSAAHTLVMKINATDADEPNTLNSKISYRIVSLEPAYPPVFYLNKDTGEIYTTSVTLDREEHSSYTLTVEARDGNGEVTDKPVKQAQVQIRILDVNDNIPVVENKVLEGMVEENQVNVEVTRIKVFDADEIGSDNWLANFTFASGNEGGYFHIETDAQTNEGIVTLIKEVDYEEMKNLDFSVIVANKAAFHKSIRSKYKPTPIPIKVKVKNVKEGIHFKSSVISIYVSESMDRSSKGQIIGNFQAFDEDTGLPAHARYVKLEDRDNWISVDSVTSEIKLAKLPDFESRYVQNGTYTVKIVAISEDYPRKTITGTVLINVEDINDNCPTLIEPVQTICHDAEYVNVTAEDLDGHPNSGPFSFSVIDKPPGMAEKWKIARQESTSVLLQQSEKKLGRSEIQFLISDNQGFSCPEKQVLTLTVCECLHGSGCREAQHDSYVGLGPAAIALMILAFLLLLLVPLLLLMCHCGKGAKGFTPIPGTIEMLHPWNNEGAPPEDKVVPSFLPVDQGGSLVGRNGVGGMAKEATMKGSSSASIVKGQHEMSEMDGRWEEHRSLLSGRATQFTGATGAIMTTETTKTARATGASRDMAGAQAAAVALNEEFLRNYFTDKAASYTEEDENHTAKDCLLVYSQEETESLNASIGCCSFIEGELDDRFLDDLGLKFKTLAEVCLGQKIDINKEIEQRQKPATETSMNTASHSLCEQTMVNSENTYSSGSSFPVPKSLQEANAEKVTQEIVTERSVSSRQAQKVATPLPDPMASRNVIATETSYVTGSTMPPTTVILGPSQPQSLIVTERVYAPASTLVDQPYANEGTVVVTERVIQPHGGGSNPLEGTQHLQDVPYVMVRERESFLAPSSGVQPTLAMPNIAVGQNVTVTERVLAPASTLQSSYQIPTENSMTARNTTVSGAGVPGPLPDFGLEESGHSNSTITTSSTRVTKHSTVQHSYS [DSG2] | 55.1 °C | 56 °C | -0.164 | -1.15 | -1.27 | -0.504 |
| MARSVRVLVDMDGVLADFEAGLLRGFRRRFPEEPHVPLEQRRGFLAREQYRALRPDLADKVASVYEAPGFFLDLEPIPGALDAVREMNDLPDTQVFICTSPLLKYHHCVGEKYRWVEQHLGPQFVERIILTRDKTVVLGDLLIDDKDTVRGQEETPSWEHILFTCCHNRHLVLPPTRRRLLSWSDNWREILDSKRGAAQRE [NT5C] | 55.9 °C | 57 °C | -0.172 | -0.241 | -1.24 | 0.0484 |
| MARVAWGLLWLLLGSAGAQYEKYSFRGFPPEDLMPLAAAYGHALEQYEGESWRESARYLEAALRLHRLLRDSEAFCHANCSGPAPAAKPDPDGGRADEWACELRLFGRVLERAACLRRCKRTLPAFQVPYPPRQLLRDFQSRLPYQYLHYALFKANRLEKAVAAAYTFLQRNPKHELTAKYLNYYQGMLDVADESLTDLEAQPYEAVFLRAVKLYNSGDFRSSTEDMERALSEYLAVFARCLAGCEGAHEQVDFKDFYPAIADLFAESLQCKVDCEANLTPNVGGYFVDKFVATMYHYLQFAYYKLNDVRQAARSAASYMLFDPKDSVMQQNLVYYRFHRARWGLEEEDFQPREEAMLYHNQTAELRELLEFTHMYLQSDDEMELEETEPPLEPEDALSDAEFEGEGDYEEGMYADWWQEPDAKGDEAEAEPEPELA [P3H4] | 53.2 °C | 53.6 °C | -0.0349 | 0.153 | 0.25 | -0.293 |
